Measured values from EP4810058A1 (Shanghai Henlius Biotech, Inc., dated 2026).

How the values were obtained:
HER2-Fc protein = molecular target: T1, HER2-Fc protein (human, UniProt P04626 23-652); assay: SPR (Biacore CM5), antibody immobilized by amine coupling, HER2-Fc injected
T1 construct: Bought reagent (Sino Biological, PA, USA, Cat. No. 10004-H02H, LC10JA1203); not shown: Fc part of the bought fusion

[1] = molecular target: T2, HER2 on gastric cancer cells NCI-N87 and SNU216 (human, UniProt P04626 23-1255); assay: HER2 internalization assay on NCI-N87 and SNU216 cells, pHrodo dye, flow cytometry
T2 construct: whole, on cells; also called CD340; erbB2

binding result (HER2-Fc protein): binds | binding result [1]: binds
B1: Second anti-HER2 antibody (antibody, human IgG1, kappa, V domains shown)
VH: EVQLVESGGGLVQPGGSLRLSCAASGFTFSSYTMSWVRQAPGKGLEWVAYISAGGGSTYYPDTVKGRFTISRDNAKNSLYLQMNSLRAEDTAVYYCARHLGGTASFDYWGQGTLVTVSS
VL: DIQMTQSPSSLSASVGDRVTITCLASQTIGTWLAWYQQKPGKAPKLLIYVATSLADGVPSRFSGSGSGTDFTLTISSLQPEDFATYYCQQNAYAPWTFGQGTKVEIKR
notes: also called second antibody; hz1E11-133
